Results from patent US10919966B2, “Antibody to programmed death-ligand 1 (PD-L1) and use thereof” (Y-BIOLOGICS INC., dated 2021).

Legend:
PD-L1-hFc [1] = target: T1, PD-L1-hFc (human, UniProt Q9NZQ7); experiment: SPR, ProteOn XPR36, PD-L1-hFc immobilised on GLC chip, antibody 30 nM to 0.123 nM
Experimental: (§1) A ProteOn XPR36 (BioRad) instrument was used. The GLC sensor chip (BioRad) was mounted on the instrument and washed with PBST buffer, and the carboxymethyldextran surface was activated with an EDC/sulfo-NHS mixed solution. PD-L1-hFc dissolved at a concentration of 5 ug/ml in a 10 mM sodium acetate buffer solution (pH 5.0) was injected and immobilized on the GLC sensor chip.
In order to deactivate the activated carboxyl groups that remain unreacted with the PD-L1 protein, 1 M ethanolamine was flowed and 10 mM glycine (pH 2.0) was injected in order to wash proteins that remain unbound to the sensor chip.

cynomolgus PD-L1 protein = cynomolgus PD-L1 protein (cynomolgus, UniProt G7PSE7); experiment: SPR, ProteOn XPR36, cynomolgus PD-L1 protein (construct not described)
PD-L1-hFc [2] = target: T1, PD-L1-hFc; experiment: SPR, ProteOn XPR36, human PD-L1 (PD-L1-hFc immobilised)
Experimental: as §1
In order to deactivate the activated carboxyl groups that remain unreacted with the PD-L1 protein, 1 M ethanolamine was flowed and 10 mM glycine (pH 2.0) was injected in order to wash proteins that remain unbound to the sensor chip. Then, sensogram data were collected during binding and dissociation over time while allowing the antibodies to flow at a flow rate of 30 µL/min (30 nM to 0.123 nM) for 10 min using PBST buffer.

T1 sequence (Q9NZQ7 other isoform, or with tags, fused parts or gaps): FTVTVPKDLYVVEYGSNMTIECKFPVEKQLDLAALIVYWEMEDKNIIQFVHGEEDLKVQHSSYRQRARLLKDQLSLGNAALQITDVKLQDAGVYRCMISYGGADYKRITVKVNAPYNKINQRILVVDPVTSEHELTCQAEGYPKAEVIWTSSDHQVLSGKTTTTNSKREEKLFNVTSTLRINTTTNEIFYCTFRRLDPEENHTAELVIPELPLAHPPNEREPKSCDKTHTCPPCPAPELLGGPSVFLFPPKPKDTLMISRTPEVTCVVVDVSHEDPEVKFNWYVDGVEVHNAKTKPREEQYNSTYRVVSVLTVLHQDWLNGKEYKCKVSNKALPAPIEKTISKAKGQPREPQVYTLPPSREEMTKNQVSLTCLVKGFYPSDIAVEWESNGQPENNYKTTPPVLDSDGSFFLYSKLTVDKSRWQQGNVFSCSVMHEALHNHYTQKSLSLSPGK

Row | Binder | Kd (PD-L1-hFc [1]) | Kd (cynomolgus PD-L1 protein) | koff (cynomolgus PD-L1 protein) | Kd (PD-L1-hFc [2]) | koff (PD-L1-hFc [2]) | kon (PD-L1-hFc [2])
1 | PDL1-16E12 (antibody, V domains shown) VH: QMQLVQSGAEVKKPGSSVKVSCKASGGTFSSYAISWVRQAPGQGLEWMGRIIPILGIANYAQKFQGRVTITADKSTSTAYMELSSLRSEDTAVYYCAKPRDGYNLVAFDIWGQGTMVTVSS VL: QLVLTQPPSVSGAPGQTVTISCTGSSSNIGAGYDVHWYQQLPGTAPKLLIYGNNNRPSGVPDRFSGSKSGALASLAITGLQAEDGADYHCQSYDNSLSAHAVFGTGTKVTVL | 45 pM |  |  |  |  | 
2 | PDL1-16E12 (LS/4F5) (antibody, V domains shown) VH: QMQLVQSGAEVKKPGSSVKVSCKASGGTFSSYAISWVRQAPGQGLEWMGRIIPILGIANYAQKFQGRVTITADKSTSTAYMELSSLRSEDTAVYYCAKPRDGYNLVAFDIWGQGTMVTVSS VL: QLVLTQPPSVSGAPGQRVTISCTGSSSNIGAGYDVHWYQQLPGAAPKLLIYGDINRPSGVPDRFSGSKSGISASLAITGLQAEDEADYYCQSYDSSLSGGVFGGGTKLTVL |  | 1 pM | 1e-07 s⁻¹ | 1 pM | 1e-07 s⁻¹ | 310000 M⁻¹ s⁻¹
